Data published in paper PMC2891831, “Insight into the Mechanisms of Adenovirus Capsid Disassembly from Studies of Defensin Neutralization” (PLoS Pathogens, 2010).

System: Ad5.eGFP
Test: Ad5.eGFP infection, eGFP-positive cells by flow cytometry
Assay type: cell-based, human adenovirus
Conditions: 15 µM defensin, percent eGFP positive cells vs. no defensin, at least three independent experiments
Description: To gain further insight into the defensin-HAdV interaction, we assessed the requirement for two conserved structural elements on the anti-AdV activity of HD5. All defensins have three disulfide bonds (Figure 3A). […] The antibacterial properties of defensins, which are dependent upon protein-lipid interactions, are not uniformly conformation dependent [27]–[29]. […] In contrast, defensin-related chemokine activity, which relies on protein-protein interactions, is dependent on defensin conformation. We hypothesized that the defensin-capsid interaction for sensitive serotypes would likely be dependent upon defensin conformation, as this would be more typical for protein-protein interactions. […]
Figure 3 HD5 antiviral activity is structure dependent. […] C) Binding of Alexa Fluor 488-labeled HAdV-5 to cells was assessed after incubation with or without 20 µM HD5 or HD5-Abu and in competition with 100 nM 5FK or 16 FK. Data are the mean fold increase in geometric mean fluorescence compared to cells alone and are of at least 10,000 cells from each of three independent experiments ± SD.
To test the activity of HD5 derivates, Ad5.eGFP was incubated with 15 µM of HD5, HD5-Abu, or HD5-E14Q. Infectivity was assessed by enumerating eGFP-positive cells by flow cytometry as described.

B1: HD5-E14Q: HD5 containing a substitution of glutamine for glutamic acid 14, to disrupt the conserved salt bridge (peptide, UniProt Q01523 20-94, looked up, variant E14Q)
Defensin alpha 5: ESLQERADEATTQKQSGEDNQDLAISFAGNGLSALRTSGSQARATCYCRTGRCATRQSLSGVCEISGRLYRLCCR
modifications: Defensin-5
notes: HD5 containing a substitution of glutamine for glutamic acid 14, to disrupt the conserved salt bridge
Question: Which “antiviral activity against Ad5.eGFP” value does the source give for B1 here?
Answer: Its value is “no effect on antiviral activity”.
